These results are taken from patent publication US6686450B1, “Immunosuppressive agents that inhibit calcineurin function and uses of these agents” (Massachusetts Institute of Technology, priority 1998, dated 2004).

What all share (format): cell-based
One test deals with IL-2 promoter. Kind of test: IL-2 promoter luciferase reporter gene assay in Jurkat T cells. To be noted: PMA and ionomycin. In general terms: Reporter assays use an easily measured gene product as a stand-in for the process of interest.
For test [1], the target named is T1, interaction between Cabin 1-14 and full length calcineurin β2 (H160N) (Homo sapiens, UniProt P16298, H160N).
T1 construct: expressed in transfected cells; host or cells: Jurkat T cells
Kind of test: mammalian two-hybrid assay in Jurkat T cells (luciferase reporter). As to conditions: Jurkat T cells stimulated with PMA and ionomycin. From the text:
(§1) A mammalian two-hybrid system was established in Jurkat T cells by fusing calcineurin with the Gal4 DNA binding domain and Cabin 1-14 with the VP16 activation domain (Hsu et al., Proc. Natl. Acid Sci. USA 91:3181-3185 (1994)). The fusion plasmids for mammalian two-hybrid assays were constructed as follows: The cDNAs of calcineurin Aβ2 wild type and H160N mutant were fused to the GAL4 DB in the pM vector (obtained from Clontech, Palo Alto, Calif.) (pMCNβ2 and PMCNβ2 (H160N), and the cDNA of Cabin 1-14 was fused to the VP16 AD in the pVP16 vector (pVPCabin 1-14). Jurkat T cells were transfected with 5 μg of pMCβ2 or pMCβ2 (H160N), 5 μg of pVPCabin 1-14, 1 μg of pCMV-βGal, and 2 μg of pg5Luc, a luciferase reporter plasmid containing GAL4 promoter, by electroporation (960 μF, 250V). After 48 hr, cells were stimulated with 40 nM PMA and 2.5 μM ionomycin, either alone or in combination, for 6 hr before luciferase activity was measured for each sample. The luciferase reporter gene assay reagents were obtained from Promega, Madison, Wis., and the assay was performed per manufacturer's instructions. […] Where appropriate, the transfection efficiency was measured by co-transfecting 2 μg of CMV-driven β-galactosidase expression vector and measuring enzymatic β-galactosidase activity (Ausubel et al., Current Protocols in Molecular Biology (John Wiley & Sons, Inc., New York, 1994)).

The target in test [2] is T2, interaction between Cabin 1-14 and wild type calcineurin β2 (Homo sapiens, UniProt P16298).
T2 construct: expressed in transfected cells; host or cells: Jurkat T cells
Described as above. To be noted: Jurkat T cells stimulated with PMA and ionomycin.
Description: as §1

In test [3] the test system is NF-κB binding sites derived from the IL-2 promoter. Kind of test: NF-κB luciferase reporter gene assay in Jurkat T cells. As to conditions: coexpression.
The subject of test [4] is NF-AT binding sites derived from the IL-2 promoter. Kind of test: NF-AT luciferase reporter gene assay in Jurkat T cells. To be noted: coexpression.
In test [5] the test system is ARRE (Oct1/AP-1) binding sites derived from the IL-2 promoter. Description: ARRE (Oct1/AP-1) luciferase reporter gene assay in Jurkat T cells. To be noted: coexpression.
In test [6] the test system is calcineurin phosphatase activity. Description: calcineurin-mediated dephosphorylation of ΔNF-AT1 in Jurkat T cells (Western blot). From the text:
To determine if the inhibition of IL-2 promoter by Cabin1-14 is mediated through the inhibition of calcineurin phosphatase activity in vivo, the effect of Cabin 1-14 on the calcineurin-mediated dephosphorylation of the N-terminal fragment of NF-ATI (ΔNF-AT1), upon treatment with ionomycin and PMA, was examined. Jurkat T cells were transfected with expression vectors for Cabin 1-14 (pSGCabin 1-14) and for HA-epitope tagged, truncated NF-AT1 (1-460) fused to green fluorescent protein (pSG-ΔNF-AT1 (1-460) by electroporation as described above. After 48 hrs, cells were treated with PMA and ionomycin, either alone or in combination, for another 1 hr. Whole-cell lysates were prepared and subjected to 8% SDS-polyacrylamide gel electrophoresis, transferred to nitrocellulose membrane (Schleicher & Schuell, New Hampshire), probed with anti-HA epitope monoclonal antibody, and developed with ECL reagents (Amersham, Arlington Heights, Ill.).
On the technique in general: A western blot detects proteins with antibodies after separation by electrophoresis.

Test [7] concerns AP-1 binding sites derived from the IL-2 promoter. Kind of test: AP-1 luciferase reporter gene assay in Jurkat T cells. To be noted: coexpression.
The target in test [8] is T3, wild type full-length calcineurin (Homo sapiens, UniProt P16298).
T3 construct: expressed in transfected cells; host or cells: Jurkat T cells
T3 sequence (P63098 2-170 partner limits assumed, other chains not shown): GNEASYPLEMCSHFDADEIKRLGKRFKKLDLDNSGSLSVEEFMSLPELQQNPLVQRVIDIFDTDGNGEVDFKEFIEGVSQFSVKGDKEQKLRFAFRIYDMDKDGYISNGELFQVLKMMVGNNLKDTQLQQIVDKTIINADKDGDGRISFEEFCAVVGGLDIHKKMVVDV
Kind of test: co-immunoprecipitation of Cabin 1-14 and calcineurin from Jurkat T cells. To be noted: PMA, ionomycin or both for 3 hrs. From the text:
In the mammalian two-hybrid system, the interaction between full-length calcineurin and Cabin 1-14 required ionomycin, which is consistent with the activation of full-length calcineurin by calcium and calmodulin. Unexpectedly, this interaction also required PMA (see FIG. 3C). Since PMA is known to activate PKC, the effect of a PKC-specific inhibitor, bisindolylmaleimide (Toullec et a., J. Biol. Chem. 266:15771-15781 (1991)), was examined on the PMA/ionomycin-stimulated interaction between Cabin 1-14 and calcineurin. […] In addition to the mammalian two-hybrid system, the interaction of Cabin 1-14 and the wild type full-length calcineurin was also confirmed by co-immunoprecipitation (See FIG. 3E). […] Jurkat T cells transfected with pSG-HACNAβ2 and pSG-Cabin 1-14 were stimulated with PMA, ionomycin or both for 3 hrs. The cells were lysed in a lysis buffer (20 mM TrisHCl, pH 7.4, 0.1M NaCl, 1% Triton X-100, 0.5% NP-40 and 0.5 mM PMSF). Cell lysates thus prepared were incubated with anti-Cabin 1 polyclonal antibodies and protein A/G agarose (Santa Cruz) for 2 hr., washed with lysis buffer and boiled in SDS sample buffer. The samples were subjected to 10% SDS-PAGE, transferred to nitrocellulose which was probed with anti-HA monoclonal antibodies and developed with ECL reagents (Amersham, Arlington Heights, Ill.). […]

B1: Cabin 1-14: C-terminal fragment of Cabin 1 polypeptide, SEQ ID NO:5 (protein, listed as Homo sapiens)
chain: KFPPEITVTPPTPTLLSPKGSISEETKQKLKSAILSAQSAANVRKESLCQPALEVLETSSQESSLESETDEDDDYMDI
For B1, the “effect on IL-2 reporter gene activation” value is on record as “potently inhibited” with IL-2 promoter and “inhibit” in the test on IL-2 promoter (listed as Cabin1-14). In addition, the “interaction with full length calcineurin β2 (H160N) mutant” value in test [1] is listed as “strong interaction”. Further, in test [2], the “interaction with wild type calcineurin relative to the mutant enzyme” value was “several fold weaker”. Further, the “effect on NF-κB reporter gene” value was “inhibited” in [3] and “inhibits” in test [3] (listed as Cabin1-14). In addition, the “effect on NF-AT reporter gene” value in test [4] is recorded as “inhibited”; in [4] (listed as Cabin1-14) it was “inhibits”. For the same molecule, the results for the “effect on ARRE (Oct1/AP-1) reporter gene” value in test [5] and in test [5] (listed as Cabin1-14) were “inhibited” and “inhibits”, respectively. In addition, the “inhibition of ΔNF-AT1 dephosphorylation in the presence of PMA versus in its absence” value in [6] (ionomycin with PMA versus without) was “larger extent”. Also, the “effect on dephosphorylation of ΔNF-AT1” value in test [6] (overexpression, ionomycin in the presence or absence of PMA) was “inhibited”. The “effect on AP-1 reporter gene” value in test [7] was “inhibited”; in [7] (listed as Cabin1-14), “inhibits”. For the same molecule, the “coprecipitation with wild type calcineurin” value in [8] is “coprecipitated only upon stimulation of Jurkat T cells with both PMA and ionomycin”; in test [8] (listed as Cabin1-14), “dependent on both PKC and calcium stimulation”.
